Measured values published in US20190233498A1 (H LUNDBECK A S, published 2019).

T1: human PACAP38 (human, not fully specified; C-terminal lysine is amidated; N-terminal or C-terminal biotin in the HTRF and PC-12 cell binding assays)
T1 construct: synthetic peptide, bought; also called huPACAP (1-38)
T1 peptide: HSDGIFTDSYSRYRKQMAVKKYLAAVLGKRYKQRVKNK

T2: human PACAP27 (human, C-terminal leucine is amidated; 125I-labelled in Example 10)
T2 peptide: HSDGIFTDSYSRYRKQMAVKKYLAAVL

T3: human VIP (human)
T3 construct: also called Vasoactive Intestinal Peptide
T3 peptide: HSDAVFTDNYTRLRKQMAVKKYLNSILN


How the values were obtained:
human PACAP38 [1] = target: T1, human PACAP38; assay: SPR, Ab immobilised
Method in brief: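 SPR with antibody amine-coupled to the chip and human PACAP38 flowed as analyte at 1.23–100 nM in PBST containing 0.25 M arginine, 0.2 mg/ml BSA and 0.005% azide, pH 7. Association lasted 2–4 min and dissociation 3–120 min. Kinetics were fitted to a 1:1 Langmuir model.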

human PACAP27 [2] = target: T2, human PACAP27; assay: SPR, Ab immobilised
human VIP = target: T3, human VIP; assay: SPR, Ab immobilised
human PACAP38 [3] = target: T1, human PACAP38; assay: cell-based or functional assay
human PACAP27 [4] = target: T2, human PACAP27; assay: cell-based or functional assay
human PACAP38 [5] = target: T1, human PACAP38; assay: cell-based or functional assay
human PACAP38 [6] = target: T1, human PACAP38; assay: cell-based or functional assay
human PACAP38 [7] = target: T1, human PACAP38; assay: HTRF binding, biotin-PACAP38
Method in brief: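 Antibody dilution series (top 100 nM final) incubated with N- or C-terminal biotinylated PACAP38 (35 nM final), alone or with 350 nM PACAP27 or VIP. HTRF with Eu³⁺ anti-human Fc donor and d2-streptavidin acceptor, 1 h at room temperature, read at 620/665 nm; EC₅₀ from binding curves.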

human PACAP38 [8] = target: T1, human PACAP38; assay: inhibition of 30 nM biotin-PACAP38 binding to PC-12 cells, TRF
Procedure: To identify antibodies that block PACAP38 binding to PAC1-R-expressing cells, adherent PC-12 cells (ATCC, Manassas, Va.) expressing PAC1-R were used in a Europium-based PAC1-R expressing cells binding assay.
Antibody solutions were incubated with N-terminal biotinylated PACAP38 at 10× the final concentration (100 nM or 30 nM) for 1 hr, then added to PC-12 cells that were plated 24 hrs. prior in black clear bottom 96 well plates (COSTAR™, Corning Incorporated, Corning, N.Y.) and further incubated for 1 hr at room temperature. After three washes, the cells were incubated with 20 μl Europium-labeled streptavidin (PerkinElmer, Waltham, Mass.) for 1 hr at room temperature. Cells were washed three times, then 20 μl DELFIA® Enhancement solution (PerkinElmer, Waltham, Mass.) was added to each well and incubated for 15 minutes with gentle shaking. Plates were read (Time Resolved Fluorescence (“TRF”)) on SPECTRAMAX® (Molecular Devices, Sunnyvale, Calif.) plate reader.
FIGS. 14A-14BB are representative of the inhibition curves obtained by this method (results are shown for Ab1, Ab2, Ab3, Ab4, Ab5, Ab6, Ab7, Ab8, Ab9, Ab10, Ab11, Ab12, Ab13, Ab14, Ab15, Ab16, Ab17, Ab18, Ab19, Ab1.H, Ab10.H, Ab22, Ab23, Ab3.H, Ab4.H, Ab5.H, Ab9.H, and Ab12.H, respectively) wherein the PAC1-R expressing cells were PC-12 cells.

human PACAP27 [9] = target: T2, human PACAP27; assay: inhibition of 0.1 nM 125I-PACAP27 binding to human PAC1-R membranes
Procedure: To identify antibodies that block PACAP27 binding to PAC1-R, antibodies at an initial concentration of 30 nM were diluted in incubation buffer (50 mM Hepes pH 7.4, 1 mM CaCl₂, 5 mM MgCl₂, 0.2% BSA) and serial 1:3 dilutions were performed. Antibody dilutions (30 nM, 10 nM, 3 nM, 1 nM, 0.3 nM, 0.1 nM, 0.03 nM, 0.01 nM, 0.003 nM and 0.001 nM) were then mixed and pre-incubated at 25° C. for 30 minutes with 0.1 nM of ¹²⁵I-labelled PACAP27 in incubation buffer. The antibody: ¹²⁵I-labelled PACAP27 mixture was then added to 0.5 μg aliquots of cell membranes derived from Chem-1 cells expressing human recombinant PAC1-R long isoform in incubation buffer. The mixture was then incubated for 1 hour at 25° C. Following incubation, the samples were filtered and washed. Afterward, the filters were counted to quantitate ¹²⁵I-labelled PACAP27. As an experimental control, non-specific binding to the cell membranes was estimated using 0.1 μM of […] PACAP27.

Kd (human PACAP38 [1])	koff (human PACAP38 [1])	kon (human PACAP38 [1])	Kd (human PACAP27 [2])	koff (human PACAP27 [2])	kon (human PACAP27 [2])	Kd (human VIP)	koff (human VIP)	kon (human VIP)	IC50, 0.1 nM PACAP38-induced PAC1-R mediated cAMP increase (human PACAP38 [3])	IC50, 0.1 nM PACAP27-induced PAC1-R mediated cAMP increase (human PACAP27 [4])	IC50, 5 nM PACAP38-induced human VPAC1-R mediated cAMP increase (human PACAP38 [5])	IC50, 1 nM PACAP38-induced human VPAC2-R mediated cAMP increase (human PACAP38 [6])	EC50 (human PACAP38 [7])	IC50 (human PACAP38 [8])	IC50 (human PACAP27 [9])	Binder
≤ 0.021 nM	≤ 1e-05 s⁻¹	470000 M⁻¹ s⁻¹	≤ 0.013 nM	≤ 1e-05 s⁻¹	760000 M⁻¹ s⁻¹	4.8 µM	0.18 s⁻¹	38000 M⁻¹ s⁻¹	0.00026 µM	0.0577 nM	0.00102 µM	0.000983 µM	0.00046 µM	0.0563 µM	0.0007 µM	anti-PACAP antibody Ab1.H (antibody, human IgG1, kappa, N297A, V domains shown, humanized form of Ab1, full length) VH: EVQLVESGGGLVQPGGSLRLSCAASGFTVSSAVMNWVRQAPGKGLEWIGSIVASGTTYYASSANGRFTISRDNSKNTLYLQMNSLRAEDTAVYYCARGGGEFFIWGQGTLVTVSS VL: DIQMTQSPSTLSASVGDRVTITCQSSESVYSNYLSWYQQKPGKAPKFLIYQASNLASGVPSRFSGSGSGTEFTLTISSLQPDDFATYYCAGGYSENIVGFGGGTKVEIKR
≤ 0.026 nM	≤ 1e-05 s⁻¹	380000 M⁻¹ s⁻¹	0.3 nM	7.9e-05 s⁻¹	260000 M⁻¹ s⁻¹	0.051 µM	0.014 s⁻¹	280000 M⁻¹ s⁻¹	0.000114 µM	0.0863 nM	0.00128 µM	0.000653 µM		0.0681 µM	0.00016 µM	anti-PACAP antibody Ab12.H (antibody, human IgG1, kappa, N297A, V domains shown, humanized form of Ab12, full length) VH: EVQLVESGGGLVQPGGSLRLSCAASGFSLSSYAMGWVRQAPGKGLEWIGDISTYGTTDYASWVYGRFTISRDNSKNTVYLQMNSLRAEDTAVYFCARDYWLSLWGQGTLVTVSS VL: AAQLTQSPSTLSASVGDRVTITCQSSQSVYDNNALAWYQQKPGKAPKLLIYAASTLASGVPSRFSGSGSGTEFTLTISSLQPDDFATYYCLGGYYDPADNAFGGGTKVEIKR
≤ 0.027 nM	≤ 1e-05 s⁻¹	370000 M⁻¹ s⁻¹		0.1 s⁻¹		0.69 µM	0.18 s⁻¹	270000 M⁻¹ s⁻¹	0.000101 µM		0.0013 µM	0.000515 µM	0.00057 µM	0.0138 µM		anti-PACAP antibody Ab22 (antibody, human IgG1, kappa, N297A, V domains shown, full-length rabbit/human chimeric antibody; PACAP38 specific) VH: QEQLVESGGGLVQPEGSLTLTCTASGFDFSSNAMCWVRQAPGKGLEWIGSIYNADGKNYYAIWAKGRFTISRTSSTTVTLQMTSLTAADTATYFCARDFDLWGQGTLVTVSS VL: AAVLTQTPSPVSAAVGGTVTINCQSSQSVYDNDWLAWFQQKPGQPPKLLIYLTSTLASGVPSRFSGSGSGTQFTLTISGVQCDDAATYYCLGGYDEDGDTHVFGGGTEVVVKR
0.031 nM	1.7e-05 s⁻¹	550000 M⁻¹ s⁻¹	0.48 nM	0.00013 s⁻¹	270000 M⁻¹ s⁻¹	100000 µM	0.1 s⁻¹		0.000378 µM	0.217 nM	0.00277 µM	0.00747 µM		0.0349 µM		anti-PACAP antibody Ab5.H (antibody, human IgG1, kappa, N297A, V domains shown, humanized form of Ab5, full length) VH: EVQLVESGGGLVQPGGSLRLSCAASGFSLSSYAMIWVRQAPGKGLEWVGIIYDNGDTYYASSAKGRFTISRDNSKNTVYLQMNSLRAEDTAVYFCAREPGSTTQNDLWGQGTLVTVSS VL: DVQMTQSPSTLSASVGDRVTITCQASENIYNSLLWYQQKPGKAPKLLIYRASTLASGVPSRFSGSGSGTEFTLTISSLQPDDFATYYCQNYYNIWTNGAAFGGGTKVEIKR
0.071 nM	3.6e-05 s⁻¹	510000 M⁻¹ s⁻¹	35 nM	0.031 s⁻¹	890000 M⁻¹ s⁻¹	0.73 µM	0.32 s⁻¹	430000 M⁻¹ s⁻¹	0.000115 µM		0.00267 µM	0.00179 µM	0.00056 µM	0.0149 µM		anti-PACAP antibody Ab23 (antibody, human IgG1, kappa, N297A, V domains shown, full-length rabbit/human chimeric antibody; PACAP38 specific) VH: QSVEESGGRLVTPGTPLTLTCTVSGFSLNNYAMSWVRQAPGKGLEWIGIMGVNDITYYASWAKGRFTISKTSTTVDLKMTSLTTEDTATYFCTREIRDDGDSSDKLWGPGTLVTVSS VL: AIKMTQTPSSVSAAVGGTVTINCQASEDIYTNLAWYQQKPGQPPNLLIYDASDLASGVPSRFSGSGDGTQFTLTISAVQCEDAATYYCQGVAWSSNTGYGSAFGGGTEVVVKR
0.061 nM	6.1e-05 s⁻¹	1e+06 M⁻¹ s⁻¹	0.12 nM	7.7e-05 s⁻¹	620000 M⁻¹ s⁻¹	1.5 µM	0.14 s⁻¹	93000 M⁻¹ s⁻¹	0.000278 µM	0.271 nM	0.00246 µM	0.00265 µM		0.0225 µM		anti-PACAP antibody Ab9.H (antibody, human IgG1, kappa, N297A, V domains shown, humanized form of Ab9, full length) VH: EVQLVESGGGLVQPGGSLRLSCAASGFTVSRDYWICWVRQAPGKGLEWIGCISAGGGSTDYANWVNGRFTISRDISKNTGYLQMNSLRAEDTAVYYCAGNLEIWGQGTLVTVSS VL: DIQMTQSPSTLSASVGDRVTITCQSSPSIYSGAFLSWYQQKPGKAPKFLIYEASKLASGVPSRFSGSGSGTEFTLTISSLQPDDFATYYCLGFYDCSSVDCHAFGGGTKVEIKR
